13 molecules from patent publication US20190112392A1 can be followed below.

Assay [1] concerns the target EGFR and CEACAM5 co-expressed on LS174T and LoVo cells (UniProt P00533). Kind of assay: cell-based or functional assay.
The target is the same in assay [2]. Kind of assay: flow cytometry, LoVo cells. A general note: A flow cytometer gives signals particle by particle.
Assay [3] has the same target. Kind of assay: flow cytometry, LS174T cells.
The target is the same in assay [4]. Description: flow cytometry, LS174T cells; LS174T cells.
Assay [5] deals with soluble recombinant human TCR alpha/beta (2XN9)-zipper protein (human). Description: ELISA, coated soluble human TCR(2XN9)-zipper. Background: ELISA stands for enzyme-linked immunosorbent assay.
In assay [6] the target is human TCR(2XN9)/CD3 expressed on CHO-K1 cells (human). Description: flow cytometry, CHO-K1 human TCR(2XN9)/CD3 cells.
The target of assay [7] is human TCR(2IAN)/CD3 expressed on HEK293H cells (human). Kind of assay: flow cytometry, HEK293H human TCR(2IAN)/CD3 cells.
The target of assay [8] is soluble recombinant human TCR alpha/beta (2XN9)-zipper protein (human). Description: BLI (Octet RED384), immobilized human sTCR(2XN9)-zipper, 1:1 model.

B1: T017000107 (protein)
chain: EVQLVESGGGLVQAGGSLRLSCAASGRTFSSYVMGWFRQATGKEREFVATIAWDSGSTYYADSVKGRFTISRDNAKNTVHLQMNSLKPEDTAVYYCAASYNVYYNNYYYPISRDEYDYWGQGTLVTVSSGGGGSGGGGSGGGGSGGGGSGGGGSGGGGSGGGGSEVQLVESGGGSVQAGGSLRLSCAASGDTYGSYWMGWFRQAPGKEREGVAAINRGGGYTVYADSVKGRFTISRDTAKNTVYLQMNSLRPDDTADYYCAASGVLGGLHEDWFNYWGQGTLVTVSSGGGGSGGGGSGGGGSGGGGSGGGGSGGGGSGGGGSEVQLVESGGGLVQPGGSLRLSCVASGDVHKINFLGWYRQAPGKEREKVAHISIGDQTDYADSAKGRFTISRDESKNMVYLQMNSLKPEDTAVYFCRAFSRIYPYDYWGQGTLVTVSSGAADYKDHDGDYKDHDIDYKDDDDKGAAHHHHHH
Regarding B1, in assay [1], the IC50, xCELLigence human T cell mediated killing of LS174T cells, E:T 15, 30-40 h amounted to 10 nM; the IC50, xCELLigence human T cell mediated killing of LS174T cells, E:T 15, 50-60 h was 5.3 nM; the IC50, xCELLigence human T cell mediated killing of LoVo cells, E:T 15, 30-40 h was 0.3 nM; the IC50, xCELLigence human T cell mediated killing of LoVo cells, E:T 15, 50-60 h turned out to be 0.061 nM. Moreover, in assay [2], the EC50 (usually the concentration that produces a half-maximal response) was determined as 3.2 nM and the Top was 88600. This molecule came in with a Top in assay [3] of 64600. Besides, the EC50 in assay [4] was 11 nM.

B2: T0170068G05 (VHH, not shown: small tags and cut ends)
VHH: VQLVEESGGGLVQPGGSLRLSCITSGETFKINIWGWYRQAPGKQRELVASLTIGGATNYADSVKGRFTISEDSAKNTVYLQMNSLKPEDTAVYFCNAKSRIYPYDYWGRGTQVTVSS
B2: the EC50 in assay [5] is 16 nM; in assay [6], 12 nM; in assay [7], over 100 nM. This molecule showed an MCF at 1 µM in assay [7] of 31200 MCF.

B3: T017000042 (bispecific antibody)
chain: EVQLVESGGGLVQPGGSLRLSCAASGDVHKINILGWYRQAPAKEREMVAHITIGDATDYADSAKGRFTISRDEAKNMVYLQMNSLKPEDTAVYFCRAYSRIYPYNYWGQGTLVTVSSGGGGSGGGGSGGGGSGGGGSGGGGSGGGGSGGGGSEVQLVESGGGLVQPGGSLRLSCTFSGGTFSSYTMGWFRQAPGKEREFVAEVRWGGVTTYSNSLKDRFSISEDSVKNAVYLQMNSLKPEDTAVYYCAAVRQMYMTVVPDYWGQGTLVTVSSGAADYKDHDGDYKDHDIDYKDDDDKGAAHHHHHH
In assay [6], B3 had a half-maximal effective concentration (EC50) of 17 nM.

B4: T017000074 (bispecific antibody)
chain: EVQLVESGGGLVQPGGSLRLSCVASGDVHKINFLGWYRQAPGKEREKVAHISIGDQTDYADSAKGRFTISRDESKNMVYLQMNSLKPEDTAVYFCRAFSRIYPYDYWGQGTLVTVSSGGGGSGGGGSGGGGSGGGGSGGGGSGGGGSGGGGSEVQLVESGGGLVQPGGSLRLSCTFSGGTFSSYTMGWFRQAPGKEREFVAEVRWGGVTTYSNSLKDRFSISEDSVKNAVYLQMNSLKPEDTAVYYCAAVRQMYMTVVPDYWGQGTLVTVSSGAADYKDHDGDYKDHDIDYKDDDDKGAAHHHHHH
In assay [6], B4 returned a half-maximal effective concentration (EC50) of 16 nM.

B5: T017000051 (bispecific antibody)
chain: EVQLVESGGGLVQPGGSLRLSCTFSGGTFSSYTMGWFRQAPGKEREFVAEVRWGGVTTYSNSLKDRFSISEDSVKNAVYLQMNSLKPEDTAVYYCAAVRQMYMTVVPDYWGQGTLVTVSSGGGGSGGGGSGGGGSGGGGSGGGGSGGGGSGGGGSEVQLVESGGGLVQPGGSLRLSCAASGEIGRINFYRWYRQAPGNQREVVATITIADKTDYADSAKGRFTISRDESRNMVYLQMSSLKPEDTAVYFCHAGSRLYPYDYWGQGTLVTVSSGAADYKDHDGDYKDHDIDYKDDDDKGAAHHHHHH
As to B5, in assay [6], the half-maximal effective concentration (EC50) was 460 nM.

B6: T017000068 (bispecific antibody)
chain: EVQLVESGGGLVQPGGSLRLSCTFSGGTFSSYTMGWFRQAPGKEREFVAEVRWGGVTTYSNSLKDRFSISEDSVKNAVYLQMNSLKPEDTAVYYCAAVRQMYMTVVPDYWGQGTLVTVSSGGGGSGGGGSGGGGSGGGGSGGGGSGGGGSGGGGSEVQLVESGGGLVQPGGSLRLSCITSGETFKINIWGWYRQAPGKQRELVASLTIGGATNYADSVKGRFTISEDSAKNTVYLQMNSLKPEDTAVYFCNAKSRLYPYDYWGQGTLVTVSSGAADYKDHDGDYKDHDIDYKDDDDKGAAHHHHHH
The molecule B6 showed a half-maximal effective concentration (EC50) in assay [6] of 190 nM.

B7: T017000038 (bispecific antibody)
chain: EVQLVESGGGLVQPGGSLRLSCAASGEIGRINFYRWYRQAPGNQREVVATITIADKTDYADSAKGRFTISRDESRNMVYLQMSSLKPEDTAVYFCHAGSRLYPYDYWGQGTLVTVSSGGGGSGGGGSGGGGSGGGGSGGGGSGGGGSGGGGSEVQLVESGGGLVQPGGSLRLSCTFSGGTFSSYTMGWFRQAPGKEREFVAEVRWGGVTTYSNSLKDRFSISEDSVKNAVYLQMNSLKPEDTAVYYCAAVRQMYMTVVPDYWGQGTLVTVSSGAADYKDHDGDYKDHDIDYKDDDDKGAAHHHHHH
For the molecule B7, in assay [6], the EC50 was determined as 17 nM.

B8: T017000055 (bispecific antibody)
chain: EVQLVESGGGLVQPGGSLRLSCTFSGGTFSSYTMGWFRQAPGKEREFVAEVRWGGVTTYSNSLKDRFSISEDSVKNAVYLQMNSLKPEDTAVYYCAAVRQMYMTVVPDYWGQGTLVTVSSGGGGSGGGGSGGGGSGGGGSGGGGSGGGGSGGGGSEVQLVESGGGLVQPGGSLRLSCAASGDVHKINILGWYRQAPAKEREMVAHITIGDATDYADSAKGRFTISRDEAKNMVYLQMNSLKPEDTAVYFCRAYSRIYPYNYWGQGTLVTVSSGAADYKDHDGDYKDHDIDYKDDDDKGAAHHHHHH
For the molecule B8, the concentration for a half-maximal effect (EC50) in assay [6] came out at 110 nM.

B9: T017000076 (bispecific antibody)
chain: EVQLVESGGGLVQPGGSLRLSCTFSGGTFSSYTMGWFRQAPGKEREFVAEVRWGGVTTYSNSLKDRFSISEDSVKNAVYLQMNSLKPEDTAVYYCAAVRQMYMTVVPDYWGQGTLVTVSSGGGGSGGGGSGGGGSGGGGSGGGGSGGGGSGGGGSEVQLVESGGGLVQPGGSLRLSCVASGDVHKINFLGWYRQAPGKEREKVAHISIGDQTDYADSAKGRFTISRDESKNMVYLQMNSLKPEDTAVYFCRAFSRIYPYDYWGQGTLVTVSSGAADYKDHDGDYKDHDIDYKDDDDKGAAHHHHHH
In assay [6], B9 came in with an EC50 of 78 nM.

B10: T017000031 (bispecific antibody)
chain: EVQLVESGGGLVQPGGSLRLSCITSGETFKINIWGWYRQAPGKQRELVASLTIGGATNYADSVKGRFTISEDSAKNTVYLQMNSLKPEDTAVYFCNAKSRLYPYDYWGQGTLVTVSSGGGGSGGGGSGGGGSGGGGSGGGGSGGGGSGGGGSEVQLVESGGGLVQPGGSLRLSCTFSGGTFSSYTMGWFRQAPGKEREFVAEVRWGGVTTYSNSLKDRFSISEDSVKNAVYLQMNSLKPEDTAVYYCAAVRQMYMTVVPDYWGQGTLVTVSSGAADYKDHDGDYKDHDIDYKDDDDKGAAHHHHHH
In assay [6], B10 gave an EC50 of 20 nM.

B11: T0170055A02 (VHH, not shown: small tags and cut ends)
VHH: EVQLVESGGGLVQPGGSLRLSCAASGDVHKINILGWYRQAPAKEREMVAHITIGDATDYADSAKGRFTISRDEAKNMVYLQMNSLKPEDTAVYFCRAYSRIYPYNYWGQGTLVTVSS
The molecule B11 showed an MCF at 1 µM in assay [7] of 91200 MCF. Also, the kon (usually the second-order rate constant of association) in assay [8] was found to be 49000 M⁻¹ s⁻¹.

B12: T0170056G05 (VHH, not shown: small tags and cut ends)
VHH: EVQLVESGGGLVQPGGSLRLSCVASGDVHKINFLGWYRQAPGKEREKVAHISIGDQTDYADSAKGRFTISRDESKNMVYLQMNSLKPEDTAVYFCRAFSRIYPYDYWGQGTLVTVSS
B12 showed an MCF at 1 µM in assay [7] of 86500 MCF. Besides, the kon in assay [8] is 50000 M⁻¹ s⁻¹.

B13: T0170061G01 (VHH, not shown: small tags and cut ends)
VHH: EVQLVESGGGLVQPGGSLRLSCAASGEIGRINFYRWYRQAPGNQREVVATITIADKTDYADSAKGRFTISRDESRNMVYLQMSSLKPEDTAVYFCHAGSRLYPYDYWGQGTQVTVSS
Regarding B13, the EC50 is 52 nM in assay [5], 31 nM in assay [6] and over 100 nM in assay [7]. This molecule also returned an MCF at 1 µM in assay [7] of 10000 MCF.
